Among the data in paper PMC12721328, “DNA extrusion size determines pathway choice during CAG repeat expansion” are Kd values, retold here.

The target of this data set is MSH2 (MutSβ subunit);MSH3 (MutSβ subunit) (human;human, UniProt P43246;P20585 1-934;1-1137, |). Description: SPR; 10 mM Mg2+; FAN1 SPR: 20 mM Tris-HCl pH 7.6, 70 mM NaCl, 10 mM CaCl2, 1 mM EDTA, 0.01% P-20, 1 mM DTT, 0.05 mg/ml BSA, 5°C; MutSβ SPR: 10 mM Tris-HCl pH 7.6, 150 mM NaCl, 10 mM MgCl2, 1 mM EDTA, 1 mM DTT, 0.005% P-20 (samples held at 10°C). Conditions: protein: recombinant;recombinant, tags: ;, copies: 1;1, label: 5'-biotin on strand 1, 5'-digoxigenin on strand 2, blunt.

B1: (CAG)1 extrusion mr78 (dsDNA)
DNA 1: CGAATTTCTAGACTCGAGATCAGCTGCTAGGTCGAGTCTAGAG
DNA 2: CTCTAGACTCGACCTAGCAGATCTCGAGTCTAGAAATTCG
In general, Kd refers to the concentration at which binding is half-saturated. In the case of B1, the Kd (central 3-nt extrusion in strand 1, 20 bp each side) is 0.5 ± 0.1 nM.

B2: (CAG)2 extrusion mr78 (dsDNA)
DNA 1: CGAATTTCTAGACTCGAGATCAGCAGCTGCTAGGTCGAGTCTAGAG
DNA 2: CTCTAGACTCGACCTAGCAGATCTCGAGTCTAGAAATTCG
On to B2, for which the Kd (central 6-nt extrusion in strand 1, 20 bp each side) was 0.5 ± 0.16 nM.

B3: (CAG)13 extrusion mr78 (dsDNA)
DNA 1: CGAATTTCTAGACTCGAGATCAGCAGCAGCAGCAGCAGCAGCAGCAGCAGCAGCAGCAGCTGCTAGGTCGAGTCTAGAG
DNA 2: CTCTAGACTCGACCTAGCAGATCTCGAGTCTAGAAATTCG
In the case of B3, the Kd (central 39-nt extrusion in strand 1, 20 bp each side) came to 4.2 ± 1.5 nM.

B4: (CAG)3 extrusion mr78 (dsDNA)
DNA 1: CGAATTTCTAGACTCGAGATCAGCAGCAGCTGCTAGGTCGAGTCTAGAG
DNA 2: CTCTAGACTCGACCTAGCAGATCTCGAGTCTAGAAATTCG
As for B4, the dissociation constant Kd (central 9-nt extrusion in strand 1, 20 bp each side) was 1.2 ± 0.4 nM.
